# B1: Aerobic respiration control sensor protein ArcB (Escherichia coli (strain K12)), P0AEC3 (parent)
# chain: MKQIRLLAQYYVDLMMKLGLVRFSMLLALALVVLAIVVQMAVTMVLHGQVESIDVIRSIFFGLLITPWAVYFLSVVVEQLEESRQRLSRLVQKLEEMRERDLSLNVQLKDNIAQLNQEIAVREKAEAELQETFGQLKIEIKEREETQIQLEQQSSFLRSFLDASPDLVFYRNEDKEFSGCNRAMELLTGKSEKQLVHLKPADVYSPEAAAKVIETDEKVFRHNVSLTYEQWLDYPDGRKACFEIRKVPYYDRVGKRHGLMGFGRDITERKRYQDALERASRDKTTFISTISHELRTPLNGIVGLSRILLDTELTAEQEKYLKTIHVSAVTLGNIFNDIIDMDKMERRKVQLDNQPVDFTSFLADLENLSALQAQQKGLRFNLEPTLPLPHQVITDGTRLRQILWNLISNAVKFTQQGQVTVRVRYDEGDMLHFEVEDSGIGIPQDELDKIFAMYYQVKDSHGGKPATGTGIGLAVSRRLAKNMGGDITVTSEQGKGSTFTLTIHAPSVAEEVDDAFDEDDMPLPALNVLLVEDIELNVIVARSVLEKLGNSVDVAMTGKAALEMFKPGEYDLVLLDIQLPDMTGLDISRELTKRYPREDLPPLVALTANVLKDKQEYLNAGMDDVLSKPLSVPALTAMIKKFWDTQDDEESTVTTEENSKSEALLDIPMLEQYLELVGPKLITDGLAVFEKMMPGYVSVLESNLTAQDKKGIVEEGHKIKGAAGSVGLRHLQQLGQQIQSPDLPAWEDNVGEWIEEMKEEWRHDVEVLKAWVAKATKK
# B2: Aerobic respiration control sensor protein ArcB (Escherichia coli (strain K12)), P0AEC3 (parent)
# chain: B1 chain
# partner: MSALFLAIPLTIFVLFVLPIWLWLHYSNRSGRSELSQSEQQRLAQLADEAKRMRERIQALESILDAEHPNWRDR
# B3: Phage shock protein B (Escherichia coli (strain K12)), P0AFM9 (parent)
# chain: B2 partner
# partner: B1 chain
# Variants of: B1
# Details: with pspa_ecoli pspA
row,Variant,effect of a mutation on the interaction
1,L87A;L90A;L94A;M97A,decreasing interaction strength

# Variants of: B2
# Details: with pspb_ecoli pspB, P0AFM9
row,Variant,effect of a mutation on the interaction
1,L87A;L90A;L94A;M97A,decreasing interaction strength

# Variants of: B3
# Details: with arcb_ecoli arcB, P0AEC3
row,Variant,effect of a mutation on the interaction
1,L10A;L15A;L18A,decreasing interaction strength
